Results from patent publication US20150344540A1, “NOVEL GLP-1 RECEPTOR AGONISTS WITH CHOLESTEROL EFFLUX ACTIVITY” (NOVO NORDISK A/S, priority 2012, published 2015).
Where no end group is shown, it is not given here. [ ]: non-standard residue; d: D form. Aib = CC(C)(N)C(=O)O

B1: [Aib8,Val25,Asn34,Lys35,Aib36,Ala37]-GLP-1-(7-37)-peptidyl-Glu-Phe-Leu amide (peptide)
peptide: H[Aib]EGTFTSDVSSYLEGQAVKEFIAWLVNK[Aib]AEFL-NH2
modifications: N-terminus assumed
SMILES: CC[C@H](C)[C@H](NC(=O)[C@H](Cc1ccccc1)NC(=O)[C@H](CCC(=O)O)NC(=O)[C@H](CCCCN)NC(=O)[C@@H](NC(=O)[C@H](C)NC(=O)[C@H](CCC(N)=O)NC(=O)CNC(=O)[C@H](CCC(=O)O)NC(=O)[C@H](CC(C)C)NC(=O)[C@H](Cc1ccc(O)cc1)NC(=O)[C@H](CO)NC(=O)[C@H](CO)NC(=O)[C@@H](NC(=O)[C@H](CC(=O)O)NC(=O)[C@H](CO)NC(=O)[C@@H](NC(=O)[C@H](Cc1ccccc1)NC(=O)[C@@H](NC(=O)CNC(=O)[C@H](CCC(=O)O)NC(=O)C(C)(C)NC(=O)[C@@H](N)Cc1c[nH]cn1)[C@@H](C)O)[C@@H](C)O)C(C)C)C(C)C)C(=O)N[C@@H](C)C(=O)N[C@@H](Cc1c[nH]c2ccccc12)C(=O)N[C@@H](CC(C)C)C(=O)N[C@H](C(=O)N[C@@H](CC(N)=O)C(=O)N[C@@H](CCCCN)C(=O)NC(C)(C)C(=O)N[C@@H](C)C(=O)N[C@@H](CCC(=O)O)C(=O)N[C@@H](Cc1ccccc1)C(=O)N[C@@H](CC(C)C)C(N)=O)C(C)C
B2: [Aib8,Val25,Gln27,Asn34,Lys35,Aib36,Ala37]-GLP-1-(7-37)-peptidyl-Glu-Phe-Leu amide (peptide)
peptide: H[Aib]EGTFTSDVSSYLEGQAVKQFIAWLVNK[Aib]AEFL-NH2
modifications: N-terminus assumed
SMILES: CC[C@H](C)[C@H](NC(=O)[C@H](Cc1ccccc1)NC(=O)[C@H](CCC(N)=O)NC(=O)[C@H](CCCCN)NC(=O)[C@@H](NC(=O)[C@H](C)NC(=O)[C@H](CCC(N)=O)NC(=O)CNC(=O)[C@H](CCC(=O)O)NC(=O)[C@H](CC(C)C)NC(=O)[C@H](Cc1ccc(O)cc1)NC(=O)[C@H](CO)NC(=O)[C@H](CO)NC(=O)[C@@H](NC(=O)[C@H](CC(=O)O)NC(=O)[C@H](CO)NC(=O)[C@@H](NC(=O)[C@H](Cc1ccccc1)NC(=O)[C@@H](NC(=O)CNC(=O)[C@H](CCC(=O)O)NC(=O)C(C)(C)NC(=O)[C@@H](N)Cc1c[nH]cn1)[C@@H](C)O)[C@@H](C)O)C(C)C)C(C)C)C(=O)N[C@@H](C)C(=O)N[C@@H](Cc1c[nH]c2ccccc12)C(=O)N[C@@H](CC(C)C)C(=O)N[C@H](C(=O)N[C@@H](CC(N)=O)C(=O)N[C@@H](CCCCN)C(=O)NC(C)(C)C(=O)N[C@@H](C)C(=O)N[C@@H](CCC(=O)O)C(=O)N[C@@H](Cc1ccccc1)C(=O)N[C@@H](CC(C)C)C(N)=O)C(C)C
B3: [Gly8,Glu23,Val25,Glu34,Lys35,Val36,Lys37]-GLP-1-(7-37)-peptidyl-Glu-Phe-Leu amide (peptide)
peptide: HGEGTFTSDVSSYLEGEAVKEFIAWLVEKVKEFL-NH2
B4: [Aib8,Glu23,Val25,Glu34,Lys35,Val36,Lys37]-GLP-1-(7-37)-peptidyl-Glu-His-Leu amide (peptide)
peptide: H[Aib]EGTFTSDVSSYLEGEAVKEFIAWLVEKVKEHL-NH2
modifications: N-terminus assumed
SMILES: CC[C@H](C)[C@H](NC(=O)[C@H](Cc1ccccc1)NC(=O)[C@H](CCC(=O)O)NC(=O)[C@H](CCCCN)NC(=O)[C@@H](NC(=O)[C@H](C)NC(=O)[C@H](CCC(=O)O)NC(=O)CNC(=O)[C@H](CCC(=O)O)NC(=O)[C@H](CC(C)C)NC(=O)[C@H](Cc1ccc(O)cc1)NC(=O)[C@H](CO)NC(=O)[C@H](CO)NC(=O)[C@@H](NC(=O)[C@H](CC(=O)O)NC(=O)[C@H](CO)NC(=O)[C@@H](NC(=O)[C@H](Cc1ccccc1)NC(=O)[C@@H](NC(=O)CNC(=O)[C@H](CCC(=O)O)NC(=O)C(C)(C)NC(=O)[C@@H](N)Cc1c[nH]cn1)[C@@H](C)O)[C@@H](C)O)C(C)C)C(C)C)C(=O)N[C@@H](C)C(=O)N[C@@H](Cc1c[nH]c2ccccc12)C(=O)N[C@@H](CC(C)C)C(=O)N[C@H](C(=O)N[C@@H](CCC(=O)O)C(=O)N[C@@H](CCCCN)C(=O)N[C@H](C(=O)N[C@@H](CCCCN)C(=O)N[C@@H](CCC(=O)O)C(=O)N[C@@H](Cc1c[nH]cn1)C(=O)N[C@@H](CC(C)C)C(N)=O)C(C)C)C(C)C

Molecular target: human GLP-1 receptor (human, UniProt P43220)
Assay: cell-based or functional assay

Q: How did the “CRE luciferase EC50, 0% HSA” value turn out when B1 was run?
A: The value was 0.108 nM.

Q: What about the “CRE luciferase EC50, 1% HSA” value of the same binder?
A: The value was 0.062 nM.

Q: What does the source list for B2?
A: CRE luciferase EC50, 0% HSA: 0.235 nM; CRE luciferase EC50, 1% HSA: 0.109 nM

Q: For B3, which “CRE luciferase EC50, 0% HSA” value is on record?
A: The value was 6.08 nM.

Q: What about the “CRE luciferase EC50, 1% HSA” value of the same binder?
A: The value was 1.38 nM.

Q: How did the “CRE luciferase EC50, 0% HSA” value turn out when B4 was run?
A: The value was 0.089 nM.

Q: What about the “CRE luciferase EC50, 1% HSA” value of the same binder?
A: Its value is 0.116 nM.
